Laboratory results reported in patent US20140057833A1 (TEMPLE UNIVERSITY OF THE COMMONWEALTH SYSTEM OF HIGHER …, published 2014).
Non-standard residues stand in square brackets, D forms with d. No end group written: not given here. βAla = NCCC(=O)O

T1: AdipoR1 (UniProt Q96A54 1-375, limits assumed)
T1 sequence (looked up): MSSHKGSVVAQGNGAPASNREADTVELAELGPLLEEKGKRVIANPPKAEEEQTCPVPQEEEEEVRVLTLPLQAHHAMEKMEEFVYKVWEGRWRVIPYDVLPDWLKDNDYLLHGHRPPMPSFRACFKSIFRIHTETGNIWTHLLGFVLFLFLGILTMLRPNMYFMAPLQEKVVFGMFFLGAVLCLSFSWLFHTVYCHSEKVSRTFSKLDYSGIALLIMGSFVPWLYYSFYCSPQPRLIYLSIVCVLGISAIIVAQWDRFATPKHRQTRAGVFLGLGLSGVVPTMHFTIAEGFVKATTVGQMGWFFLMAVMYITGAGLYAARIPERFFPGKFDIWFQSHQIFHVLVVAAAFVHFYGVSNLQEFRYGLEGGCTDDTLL

B1: ADP 25-β-AlaNH2 (peptide)
peptide: NIPGLYYFAY[βAla]-NH2
modifications: N-terminus assumed
SMILES: CC[C@H](C)[C@H](NC(=O)[C@@H](N)CC(N)=O)C(=O)N1CCC[C@H]1C(=O)NCC(=O)N[C@@H](CC(C)C)C(=O)N[C@@H](Cc1ccc(O)cc1)C(=O)N[C@@H](Cc1ccc(O)cc1)C(=O)N[C@@H](Cc1ccccc1)C(=O)N[C@@H](C)C(=O)N[C@@H](Cc1ccc(O)cc1)C(=O)NCCC(N)=O

Molecular target: T1, AdipoR1
Assay: cell-based or functional assay

Molecule | MCF-7 cell growth restriction at 50 ng/mL | MCF-7 cell proliferation inhibition at 50 ng/mL relative to untreated controls
globular adiponectin (gAd) (from UniProt Q15848 108-244) (ligand) | 18% | 
B1 |  | 20%
